Source: patent US20230002480A1

Key:
Assay in all cases: cell-based or functional assay
[1] = target: HIV-1 Env of pseudovirus BF1266.431a (HIV-1)
[2] = target: HIV-1 Env of pseudovirus Q769.d22 (HIV-1)
[3] = target: HIV-1 Env of pseudovirus 249M B10 (HIV-1)
[4] = target: HIV-1 Env of pseudovirus 1056_10_TA11_1826 (HIV-1)
[5] = target: HIV-1 Env of pseudovirus TRJO4551.58 (HIV-1)
[6] = target: HIV-1 Env of pseudovirus CNE19 (HIV-1)
[7] = target: HIV-1 Env of pseudovirus ZM53M.PB12 (HIV-1)
[8] = target: HIV-1 Env of pseudovirus ZM109F.PB4 (HIV-1)
[9] = target: HIV-1 Env of pseudovirus Ce1086_B2 (HIV-1)
[10] = target: HIV-1 Env of pseudovirus SC422661.8 (HIV-1)
[11] = target: HIV-1 Env of pseudovirus ZM197M.PB7 (HIV-1)
[12] = target: HIV-1 Env of pseudovirus Ce2010_F5 (HIV-1)
[13] = target: HIV-1 Env of pseudovirus CNE58 (HIV-1)
[14] = target: HIV-1 Env of pseudovirus Ce0393_C3 (HIV-1)
[15] = target: HIV-1 Env of pseudovirus ZM249M.PL1 (HIV-1)
[16] = target: HIV-1 Env of pseudovirus 62357_14_D3_4589 (HIV-1)
[17] = target: HIV-1 Env of pseudovirus CAP210.2.00.E8 (HIV-1)
[18] = target: HIV-1 Env of pseudovirus WITO4160.33 (HIV-1)
[19] = target: HIV-1 Env of pseudovirus HIV-16055-2.3 (HIV-1)
[20] = target: HIV-1 Env of pseudovirus Ce0682_E4 (HIV-1)
[21] = target: HIV-1 Env of pseudovirus 9004SS_A3_4 (HIV-1)

For N49P9.1 (antibody), the IC50 [1] was 0.808 µg/mL, the IC80 [1] was 3.14 µg/mL and the MPI [1] was 95. The IC50 [2] was 0.039 µg/mL, the IC80 [2] was 0.148 µg/mL and the MPI [2] was 100. The IC50 [3] was 0.305 µg/mL, the IC80 [3] was 1.64 µg/mL and the MPI [3] was 96. The IC50 [4] was 0.617 µg/mL, the IC80 [4] was 3.03 µg/mL and the MPI [4] was 100. It also gave an IC50 [5] of 0.035 µg/mL, an IC80 [5] of 0.12 µg/mL and an MPI [5] of 100. The IC50 [6] was 0.033 µg/mL, the IC80 [6] was 0.146 µg/mL and the MPI [6] was 100. It also gave an IC50 [7] of 0.447 µg/mL, an IC80 [7] of 1.29 µg/mL and an MPI [7] of 100. It also gave an IC50 [8] of 0.116 µg/mL, an IC80 [8] of 0.497 µg/mL and an MPI [8] of 95. It also gave an IC50 [9] of 0.814 µg/mL, an IC80 [9] of 4.08 µg/mL and an MPI [9] of 96. It also gave an IC50 [10] of 0.127 µg/mL, an IC80 [10] of 0.468 µg/mL and an MPI [10] of 100. It also gave an IC50 [11] of 0.049 µg/mL, an IC80 [11] of 0.283 µg/mL and an MPI [11] of 100. For the same substance, the IC50 [12] was 0.12 µg/mL, the IC80 [12] was 0.38 µg/mL and the MPI [12] was 100. It also gave an IC50 [13] of 0.027 µg/mL, an IC80 [13] of 0.074 µg/mL and an MPI [13] of 100. For the same substance, the IC50 [14] was 0.284 µg/mL, the IC80 [14] was 1.22 µg/mL and the MPI [14] was 100. It also gave an IC50 [15] of 0.206 µg/mL, an IC80 [15] of 1.92 µg/mL and an MPI [15] of 95. The IC50 [16] was 0.227 µg/mL, the IC80 [16] was 1.09 µg/mL and the MPI [16] was 99. The IC50 [17] was > 50 µg/mL, the IC80 [17] was > 50 µg/mL and the MPI [17] was 2. The IC50 [18] was 0.051 µg/mL, the IC80 [18] was 0.241 µg/mL and the MPI [18] was 100. It also gave an IC50 [19] of 0.102 µg/mL, an IC80 [19] of 0.362 µg/mL and an MPI [19] of 100. It also gave an IC50 [20] of 0.076 µg/mL, an IC80 [20] of 0.264 µg/mL and an MPI [20] of 100.
N49P19 (antibody) was tested, and the IC50 [1] was > 50 µg/mL, the IC80 [1] was > 50 µg/mL and the MPI [1] was 15. The IC50 [2] was 0.14 µg/mL, the IC80 [2] was 0.519 µg/mL and the MPI [2] was 100. For the same substance, the IC50 [3] was > 50 µg/mL, the IC80 [3] was > 50 µg/mL and the MPI [3] was 39. For the same substance, the IC50 [4] was 0.925 µg/mL, the IC80 [4] was 3.15 µg/mL and the MPI [4] was 100. For the same substance, the IC50 [5] was 1.23 µg/mL, the IC80 [5] was 5.4 µg/mL and the MPI [5] was 99. The IC50 [6] was 20.7 µg/mL, the IC80 [6] was > 50 µg/mL and the MPI [6] was 59. For the same substance, the IC50 [7] was 1.19 µg/mL, the IC80 [7] was 4.14 µg/mL and the MPI [7] was 100. It also gave an IC50 [8] of 0.282 µg/mL, an IC80 [8] of 2.66 µg/mL and an MPI [8] of 92. It also gave an IC50 [9] of 0.613 µg/mL, an IC80 [9] of 2.68 µg/mL and an MPI [9] of 97. The IC50 [10] was 0.425 µg/mL, the IC80 [10] was 1.42 µg/mL and the MPI [10] was 100. For the same substance, the IC50 [11] was 38.4 µg/mL, the IC80 [11] was > 50 µg/mL and the MPI [11] was 56. For the same substance, the IC50 [12] was 7.66 µg/mL, the IC80 [12] was 45.4 µg/mL and the MPI [12] was 82. For the same substance, the IC50 [13] was > 50 µg/mL, the IC80 [13] was > 50 µg/mL and the MPI [13] was 43. The IC50 [14] was > 50 µg/mL, the IC80 [14] was > 50 µg/mL and the MPI [14] was 31. The IC50 [15] was > 50 µg/mL, the IC80 [15] was > 50 µg/mL and the MPI [15] was 33. The IC50 [16] was 37.4 µg/mL, the IC80 [16] was > 50 µg/mL and the MPI [16] was 51. For the same substance, the IC50 [17] was > 50 µg/mL, the IC80 [17] was > 50 µg/mL and the MPI [17] was 0. For the same substance, the IC50 [18] was 0.263 µg/mL, the IC80 [18] was 1.29 µg/mL and the MPI [18] was 100. For the same substance, the IC50 [19] was > 50 µg/mL, the IC80 [19] was > 50 µg/mL and the MPI [19] was 30. For the same substance, the IC50 [20] was 0.607 µg/mL, the IC80 [20] was 2.32 µg/mL and the MPI [20] was 98.
Substance PG9 (antibody) has an IC50, titer in TZM.bl cells [1] of 0.026 µg/mL, an IC80, titer in TZM.bl cells [1] of 0.088 µg/mL and an IC50, titer in TZM.bl cells [21] of 0.088 µg/mL. The IC80, titer in TZM.bl cells [21] was 0.251 µg/mL, the IC50, titer in TZM.bl cells [2] was 0.025 µg/mL and the IC80, titer in TZM.bl cells [2] was 0.068 µg/mL. It also gave an IC50, titer in TZM.bl cells [3] of 0.095 µg/mL, an IC80, titer in TZM.bl cells [3] of 0.29 µg/mL and an IC50, titer in TZM.bl cells [4] of 6.34 µg/mL. It also gave an IC80, titer in TZM.bl cells [4] of 38.3 µg/mL, an IC50, titer in TZM.bl cells [5] of 0.503 µg/mL and an IC80, titer in TZM.bl cells [5] of 4.06 µg/mL. The IC50, titer in TZM.bl cells [6] was 0.024 µg/mL, the IC80, titer in TZM.bl cells [6] was 0.146 µg/mL and the IC50, titer in TZM.bl cells [7] was 0.069 µg/mL. For the same substance, the IC80, titer in TZM.bl cells [7] was 0.221 µg/mL, the IC50, titer in TZM.bl cells [8] was 0.256 µg/mL and the IC80, titer in TZM.bl cells [8] was 6.69 µg/mL. For the same substance, the IC50, titer in TZM.bl cells [9] was > 50 µg/mL, the IC80, titer in TZM.bl cells [9] was > 50 µg/mL and the IC50, titer in TZM.bl cells [10] was 0.553 µg/mL. It also gave an IC80, titer in TZM.bl cells [10] of 7.05 µg/mL, an IC50, titer in TZM.bl cells [11] of 0.899 µg/mL and an IC80, titer in TZM.bl cells [11] of 4.52 µg/mL. For the same substance, the IC50, titer in TZM.bl cells [12] was > 50 µg/mL, the IC80, titer in TZM.bl cells [12] was > 50 µg/mL and the IC50, titer in TZM.bl cells [13] was 0.038 µg/mL. For the same substance, the IC80, titer in TZM.bl cells [13] was 0.122 µg/mL, the IC50, titer in TZM.bl cells [14] was 0.02 µg/mL and the IC80, titer in TZM.bl cells [14] was 0.055 µg/mL. For the same substance, the IC50, titer in TZM.bl cells [15] was 0.166 µg/mL, the IC80, titer in TZM.bl cells [15] was 1.41 µg/mL and the IC50, titer in TZM.bl cells [16] was > 50 µg/mL. The IC80, titer in TZM.bl cells [16] was > 50 µg/mL, the IC50, titer in TZM.bl cells [17] was 0.04 µg/mL and the IC80, titer in TZM.bl cells [17] was 0.173 µg/mL. For the same substance, the IC50, titer in TZM.bl cells [18] was 0.01 µg/mL, the IC80, titer in TZM.bl cells [18] was 0.037 µg/mL and the IC50, titer in TZM.bl cells [19] was 0.021 µg/mL. The IC80, titer in TZM.bl cells [19] was 0.06 µg/mL, the IC50, titer in TZM.bl cells [20] was 0.196 µg/mL and the IC80, titer in TZM.bl cells [20] was 0.698 µg/mL.
